Data from patent US20230357429A1 (JANUX THERAPEUTICS, published 2023).
Numbering of substitutions follows the chain as printed. Names and notes keep the numbering of the source.

How the values were obtained:
[1] = target: T1, TBD-1 wt (anti-TROP2 Fab, hRS7); experiment: competition ELISA, Fab on captured TROP2
T1 construct: non-mutated Fab

TBD-6 (LC I93A) = target: T2, TBD-6 (LC I93A); experiment: competition ELISA, Fab on captured TROP2
T2 construct: anti-TROP2 Fab, CDR3 LC alanine mutant

TBD-17 (HC S104A) = target: T3, TBD-17 (HC S104A); experiment: competition ELISA, Fab on captured TROP2
T3 construct: anti-TROP2 Fab, CDR3 HC alanine mutant

TBD-21 (HC F108A) = target: T4, TBD-21 (HC F108A); experiment: competition ELISA, Fab on captured TROP2
T4 construct: anti-TROP2 Fab, CDR3 HC alanine mutant

TBD-22 (HC D109A) = target: T5, TBD-22 (HC D109A); experiment: competition ELISA, Fab on captured TROP2
T5 construct: anti-TROP2 Fab, CDR3 HC alanine mutant

TBD-11 (HC R98A) = target: T6, TBD-11 (HC R98A); experiment: competition ELISA, Fab on captured TROP2
T6 construct: anti-TROP2 Fab, CDR3 HC alanine mutant

Human TROP2 Full length = target: T7, Human TROP2 Full length (human, UniProt P09758 31-323); experiment: cell-based or functional assay
T7 sequence: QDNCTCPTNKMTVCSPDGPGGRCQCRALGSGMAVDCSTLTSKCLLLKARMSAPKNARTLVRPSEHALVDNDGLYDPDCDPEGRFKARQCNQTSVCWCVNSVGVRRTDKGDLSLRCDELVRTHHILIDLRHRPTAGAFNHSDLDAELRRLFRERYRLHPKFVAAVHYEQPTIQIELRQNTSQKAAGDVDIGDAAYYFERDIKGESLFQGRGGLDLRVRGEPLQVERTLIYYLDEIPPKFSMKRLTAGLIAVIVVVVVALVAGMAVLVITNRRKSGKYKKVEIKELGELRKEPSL

Cyno TROP2 Full length = target: T8, Cyno TROP2 Full length (cynomolgus monkey, UniProt P09758 31-323 (human entry)); experiment: cell-based or functional assay
T8 chain: T7 sequence with M32V, S63N, I200V, M262V, T268S

CD3 = target: T9, CD3 (human, UniProt P07766 23-126, limits assumed, biotinylated); experiment: ELISA; biotinylated CD3 on neutravidin plates, PC titrated, HRP secondary
T9 construct: also called biotinylated CD3; CD3-biotin

[2] = target: T10, Human TROP2 ECD (31-274 AA) (human, UniProt P09758 31-274, biotinylated); experiment: ELISA; biotinylated TROP2 on neutravidin plates, PC titrated, HRP secondary
T10 construct: also called biotinylated TROP2; TROP2-biotin
T10 sequence: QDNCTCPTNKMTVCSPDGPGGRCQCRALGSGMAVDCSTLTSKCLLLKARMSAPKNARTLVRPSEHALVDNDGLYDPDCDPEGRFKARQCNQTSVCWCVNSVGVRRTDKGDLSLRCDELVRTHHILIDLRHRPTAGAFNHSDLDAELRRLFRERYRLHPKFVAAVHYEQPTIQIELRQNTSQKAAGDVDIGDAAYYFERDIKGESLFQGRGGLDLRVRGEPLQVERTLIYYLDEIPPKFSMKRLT

VDFCYRYSWPVCWA (mask peptide for the TROP2 Fab) [Peptide-54]
IC50 [1]: 27100 nM | IC50 (TBD-6 (LC I93A)): 23400 nM | IC50 (TBD-17 (HC S104A)): 29900 nM | IC50 (TBD-21 (HC F108A)): 161000 nM | IC50 (TBD-22 (HC D109A)): 3620 nM

VDFCGLYHWPICYQV (mask peptide for the TROP2 Fab) [Peptide-51]
IC50 [1]: 180 nM | IC50 (TBD-6 (LC I93A)): 420 nM | IC50 (TBD-11 (HC R98A)): 620 nM | IC50 (TBD-17 (HC S104A)): 550 nM | IC50 (TBD-21 (HC F108A)): 1270 nM | IC50 (TBD-22 (HC D109A)): 10 nM

IDFCRVYDWPVCSL (mask peptide for the TROP2 Fab) [Peptide-53]
IC50 [1]: 8930 nM | IC50 (TBD-6 (LC I93A)): 4510 nM | IC50 (TBD-11 (HC R98A)): 16100 nM | IC50 (TBD-17 (HC S104A)): 7560 nM | IC50 (TBD-21 (HC F108A)): 22700 nM | IC50 (TBD-22 (HC D109A)): 590 nM

VDFCGLYHWPICYQ (mask peptide for the TROP2 Fab) [Peptide-8]
IC50 (TBD-6 (LC I93A)): 760 nM | IC50 (TBD-11 (HC R98A)): 940 nM | IC50 (TBD-17 (HC S104A)): 1250 nM | IC50 (TBD-21 (HC F108A)): 2120 nM | IC50 (TBD-22 (HC D109A)): 100 nM

VDFCALYHWPICYQ (mask peptide for the TROP2 Fab) [Peptide-43]
IC50 [1]: 270 nM | IC50 (TBD-6 (LC I93A)): 480 nM | IC50 (TBD-11 (HC R98A)): 870 nM | IC50 (TBD-17 (HC S104A)): 510 nM | IC50 (TBD-21 (HC F108A)): 1040 nM | IC50 (TBD-22 (HC D109A)): 50 nM

IDFCLLYKWPVCEL (mask peptide for the TROP2 Fab) [Peptide-49]
IC50 [1]: 3730 nM | IC50 (TBD-6 (LC I93A)): 2250 nM | IC50 (TBD-11 (HC R98A)): 6370 nM | IC50 (TBD-17 (HC S104A)): 2530 nM | IC50 (TBD-21 (HC F108A)): 8670 nM | IC50 (TBD-22 (HC D109A)): 70 nM

IDFCYRYGWPVCQT (mask peptide for the TROP2 Fab) [Peptide-57]
IC50 [1]: 16700 nM | IC50 (TBD-6 (LC I93A)): 12700 nM | IC50 (TBD-17 (HC S104A)): 17300 nM | IC50 (TBD-21 (HC F108A)): 88100 nM | IC50 (TBD-22 (HC D109A)): 1910 nM

VDFCYMYKWPVCYP (mask peptide for the TROP2 Fab) [Peptide-48]
IC50 [1]: 10000 nM | IC50 (TBD-6 (LC I93A)): 6260 nM | IC50 (TBD-11 (HC R98A)): 31300 nM | IC50 (TBD-17 (HC S104A)): 8860 nM | IC50 (TBD-21 (HC F108A)): 75200 nM | IC50 (TBD-22 (HC D109A)): 310 nM

VDFCYKYNWPICSR (mask peptide for the TROP2 Fab) [Peptide-55]
IC50 [1]: 4390 nM | IC50 (TBD-6 (LC I93A)): 3120 nM | IC50 (TBD-11 (HC R98A)): 14000 nM | IC50 (TBD-17 (HC S104A)): 7210 nM | IC50 (TBD-21 (HC F108A)): 16800 nM | IC50 (TBD-22 (HC D109A)): 330 nM

B1: PC-50 (bispecific antibody)
light: GGVDFCALYHWPICYQGGGGSGGLSGRSDAGSPLGLAGSGGSDIQLTQSPSSLSASVGDRVSITCKASQDVSIAVAWYQQKPGKAPKLLIYSASYRYTGVPDRFSGSGSGTDFTLTISSLQPEDFAVYYCQQHYITPLTFGAGTKVEIKRTVAAPSVFIFPPSDEQLKSGTASVVCLLNNFYPREAKVQWKVDNALQSGNSQESVTEQDSKDSTYSLSSTLTLSKADYEKHKVYACEVTHQGLSSPVTKSFNRGEC
heavy: not shown
notes: Masked polypeptide complex: anti-TROP2 F108A, anti-CD3 H101A
H292 Cytotoxicity EC50 (pM) (Human TROP2 Full length): > 100000 pM | CyTROP2 HEK293 EC50 (pM) (Cyno TROP2 Full length): > 100000 pM | EC50 (CD3): 454 nM | EC50 [2]: 1220 nM

B2: PC-39 (bispecific antibody)
light: B1 light
heavy: EVQLVESGGGLVQPGGSLRLSCAASGSTFYTAVMGWVRQAPGKGLEWVAAIRWTALTTSYADSVKGRFTISRDGAKTTLYLQMNSLRPEDTAVYYCAARGTLGLFTTADSYDYWGQGTLVTVSSGGGGSGGGSGGYLCGPDGDETLACYGGGGSGGGLSGRSDAGSPLGLAGSGGGSEVQLVESGGGLVQPGGSLKLSCAASGFTFNKYAMNWVRQASGKGLEWVGRIRSKYNNYATYYADSVKDRFTISRDDSKNTAYLQMNSLKTEDTAVYYCVRHGNFGNSYISYWAYWGQGTLVTVSSGGGGSGGGGSGGGGSQTVVTQEPSFSVSPGGTVTLTCRSSTGAVTSGNYANWVQQTPGQAPRGLIGGTKFLAPGVPDRFSGSILGNKAALTITGAQADDESDYYCVLWYSNRWVFGGGTKLTVLGGGGSQVQLQQSGSELKKPGASVKVSCKASGYTFTNYGMNWVKQAPGQGLKWMGWINTYTGEPTYTDDFKGRFAFSLDTSVSTAYLQISSLKADDTAVYFCARGGFGSSYWYADVWGQGSLVTVSSASTKGPSVFPLAPSSKSTSGGTAALGCLVKDYFPEPVTVSWNSGALTSGVHTFPAVLQSSGLYSLSSVVTVPSSSLGTQTYICNVNHKPSNTKVDKKVEPKSC
notes: Masked polypeptide complex: anti-TROP2 F108A, anti-CD3 with P41S, A49G, N87S ; E227D; CD3 mask YLCGPDGDETLACY
H292 Cytotoxicity EC50 (pM) (Human TROP2 Full length): 13700 pM | HCT116 Cytotoxicity EC50 (pM) (Human TROP2 Full length): > 100000 pM | CyTROP2 HEK293 EC50 (pM) (Cyno TROP2 Full length): 665 pM | EC50 (CD3): 136 nM | EC50 [2]: 1090 nM

B3: PC-41 (bispecific antibody)
light: B1 light
heavy: B2 heavy with Y136V, L137Y, D141E, G142F, T145S, L146V, A147G, Y149A
notes: Masked polypeptide complex: anti-TROP2 F108A, anti-CD3 with P41S, A49G, N87S ; E227D
H292 Cytotoxicity EC50 (pM) (Human TROP2 Full length): 47000 pM | CyTROP2 HEK293 EC50 (pM) (Cyno TROP2 Full length): 5130 pM | EC50 (CD3): 230 nM | EC50 [2]: 1380 nM

B4: PC-51 (bispecific antibody)
light: B1 light
heavy: not shown
notes: Masked polypeptide complex: anti-TROP2 F108A, anti-CD3 L232A
H292 Cytotoxicity EC50 (pM) (Human TROP2 Full length): > 100000 pM | CyTROP2 HEK293 EC50 (pM) (Cyno TROP2 Full length): 79300 pM | EC50 (CD3): 410 nM | EC50 [2]: 1160 nM

B5: PC-52 (bispecific antibody)
light: B1 light
heavy: not shown
notes: Masked polypeptide complex: anti-TROP2 F108A, anti-CD3 N236A
H292 Cytotoxicity EC50 (pM) (Human TROP2 Full length): 98300 pM | CyTROP2 HEK293 EC50 (pM) (Cyno TROP2 Full length): 37700 pM | EC50 (CD3): 242 nM | EC50 [2]: 1210 nM

B6: PC-43 (bispecific antibody)
light: B1 light
heavy: EVQLVESGGGLVQPGGSLRLSCAASGSTFYTAVMGWVRQAPGKGLEWVAAIRWTALTTSYADSVKGRFTISRDGAKTTLYLQMNSLRPEDTAVYYCAARGTLGLFTTADSYDYWGQGTLVTVSSGGGGSGGGSGGGSACLGPEWEVCPYGGGGSGGGLSGRSDAGSPLGLAGSGGGSEVQLVESGGGLVQPGGSLKLSCAASGFTFNKYAMNWVRQASGKGLEWVGRIRSKYNNYATYYADSVKDRFTISRDDSKNTAYLQMNSLKTEDTAVYYCVRHGNFGNSYISYWAYWGQGTLVTVSSGGGGSGGGGSGGGGSQTVVTQEPSFSVSPGGTVTLTCRSSTGAVTSGNYANWVQQTPGQAPRGLIGGTKFLAPGVPDRFSGSILGNKAALTITGAQADDESDYYCVLWYSNRWVFGGGTKLTVLGGGGSQVQLQQSGSELKKPGASVKVSCKASGYTFTNYGMNWVKQAPGQGLKWMGWINTYTGEPTYTDDFKGRFAFSLDTSVSTAYLQISSLKADDTAVYFCARGGFGSSYWYADVWGQGSLVTVSSASTKGPSVFPLAPSSKSTSGGTAALGCLVKDYFPEPVTVSWNSGALTSGVHTFPAVLQSSGLYSLSSVVTVPSSSLGTQTYICNVNHKPSNTKVDKKVEPKSC
notes: as for B3
H292 Cytotoxicity EC50 (pM) (Human TROP2 Full length): 12700 pM | CyTROP2 HEK293 EC50 (pM) (Cyno TROP2 Full length): 1220 pM | EC50 (CD3): 60.7 nM | EC50 [2]: 587 nM

VEFCAIYSWPICKI (mask peptide for the TROP2 Fab) [Peptide-46]
IC50 [1]: 5140 nM | IC50 (TBD-6 (LC I93A)): 5180 nM | IC50 (TBD-11 (HC R98A)): 22300 nM | IC50 (TBD-17 (HC S104A)): 11500 nM | IC50 (TBD-21 (HC F108A)): 25900 nM | IC50 (TBD-22 (HC D109A)): 700 nM

VDFCAIYSWPICKI (mask peptide for the TROP2 Fab) [Peptide-50]
IC50 [1]: 560 nM | IC50 (TBD-6 (LC I93A)): 920 nM | IC50 (TBD-11 (HC R98A)): 1970 nM | IC50 (TBD-17 (HC S104A)): 1540 nM | IC50 (TBD-21 (HC F108A)): 3700 nM | IC50 (TBD-22 (HC D109A)): 20 nM
